Patent US20210063414A1, “METHODS FOR PREVENTING AND/OR TREATING BONE LOSS CONDITIONS BY MODULATING IRISIN” (Dana-Farber Cancer Institute, Inc., priority 2018, published 2021)

Columns and labels:
[1] = biological target: T1, MLO-Y4 cell surface proteins (Mus musculus, UniProt Q9CYR0); assay: Crosslinking/co-immunoprecipitation/mass spectrometry (TMT quantitative proteomics) to identify irisin receptors; type: binding; conditions: co-precipitated protein Ssbp1 (SSBP_MOUSE)
T1 construct: endogenous in cells; host or cells: MLO-Y4
T1 sequence (Q9CYR0 17-152): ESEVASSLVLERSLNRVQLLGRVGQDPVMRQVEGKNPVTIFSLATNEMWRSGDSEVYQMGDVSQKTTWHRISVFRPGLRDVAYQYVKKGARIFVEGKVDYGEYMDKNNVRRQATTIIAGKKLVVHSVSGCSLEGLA
Procedure, shortened: (§1)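 Relative protein abundance came from 6-plex TMT MS3 quantitation on an Orbitrap Fusion Lumos, after in-gel trypsin digestion of Coomassie-stained SDS-PAGE lanes. Input was a Ni-NTA pulldown (250 mM imidazole elution) of lysates from murine MLO-Y4 cells. These cells were treated on ice with His-tagged irisin or adipsin (10 nM, 20 min) in serum-free medium, then crosslinked with 1.5 mM DTSSP for 30 min.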

[2] = biological target: T2, MLO-Y4 cell surface proteins (Mus musculus, UniProt P97350); assay: as above; type: binding; conditions: co-precipitated protein Pkp1 (PKP1_MOUSE)
T2 construct: endogenous in cells; host or cells: MLO-Y4
T2 sequence (P97350 1-728): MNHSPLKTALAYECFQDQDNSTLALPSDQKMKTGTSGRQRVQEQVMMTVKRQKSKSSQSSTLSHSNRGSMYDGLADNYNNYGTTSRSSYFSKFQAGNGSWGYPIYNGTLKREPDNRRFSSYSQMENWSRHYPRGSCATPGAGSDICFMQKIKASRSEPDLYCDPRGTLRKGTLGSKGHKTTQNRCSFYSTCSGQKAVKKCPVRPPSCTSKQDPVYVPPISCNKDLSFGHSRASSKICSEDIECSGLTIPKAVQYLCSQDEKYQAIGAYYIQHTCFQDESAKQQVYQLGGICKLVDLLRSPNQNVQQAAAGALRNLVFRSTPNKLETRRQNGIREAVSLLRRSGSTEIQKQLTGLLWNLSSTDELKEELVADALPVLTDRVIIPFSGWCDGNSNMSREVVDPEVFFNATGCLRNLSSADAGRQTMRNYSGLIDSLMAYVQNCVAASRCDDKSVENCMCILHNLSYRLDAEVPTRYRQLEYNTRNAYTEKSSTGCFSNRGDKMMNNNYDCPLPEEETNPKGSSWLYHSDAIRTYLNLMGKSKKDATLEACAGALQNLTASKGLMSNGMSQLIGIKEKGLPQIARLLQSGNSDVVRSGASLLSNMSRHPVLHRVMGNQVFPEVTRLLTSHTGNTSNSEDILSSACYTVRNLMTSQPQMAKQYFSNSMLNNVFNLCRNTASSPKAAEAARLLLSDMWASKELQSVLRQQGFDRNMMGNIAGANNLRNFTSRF
Procedure, shortened: as §1

B1: irisin: secreted cleaved form of FNDC5; recombinant human/mouse irisin with C-terminal his tag produced in HEK293 cells (protein)
chain: DSPSAPVNVTVRHLKANSAVVSWDVLEDEVVIGFAISQQKKDVRMLRFIQEVNTTTRSCALWDLEEDTEYIVHVQAISIQGQSPASEPVLFKTPREAEKMASKNKDEVTMKE
modifications: left off: small tags and cut ends
notes: secreted cleaved form of FNDC5; recombinant human/mouse irisin with C-terminal his tag produced in HEK293 cells
B1 was tested, and the TMT signal-to-noise ratio [1] was 244.754, the “irisin/adipsin TMT signal-to-noise ratio” value [1] was 0.566 and the TMT signal-to-noise ratio [2] was 8.015. The “irisin/adipsin TMT signal-to-noise ratio” value [2] was 0.082.
